The values below come from patent US20120184713A1, “Compositions and Methods for Modulation of Bone Density and Biomineralization” (priority 2011, published 2012).

One series addresses T1, FAM20C (Mus musculus, UniProt Q5MJS3).
T1 construct: His (from vector pcDNA3.1/V5-His B) (C); made in house; host or cells: HEK293T
T1 sequence (Q5MJS3 88-579): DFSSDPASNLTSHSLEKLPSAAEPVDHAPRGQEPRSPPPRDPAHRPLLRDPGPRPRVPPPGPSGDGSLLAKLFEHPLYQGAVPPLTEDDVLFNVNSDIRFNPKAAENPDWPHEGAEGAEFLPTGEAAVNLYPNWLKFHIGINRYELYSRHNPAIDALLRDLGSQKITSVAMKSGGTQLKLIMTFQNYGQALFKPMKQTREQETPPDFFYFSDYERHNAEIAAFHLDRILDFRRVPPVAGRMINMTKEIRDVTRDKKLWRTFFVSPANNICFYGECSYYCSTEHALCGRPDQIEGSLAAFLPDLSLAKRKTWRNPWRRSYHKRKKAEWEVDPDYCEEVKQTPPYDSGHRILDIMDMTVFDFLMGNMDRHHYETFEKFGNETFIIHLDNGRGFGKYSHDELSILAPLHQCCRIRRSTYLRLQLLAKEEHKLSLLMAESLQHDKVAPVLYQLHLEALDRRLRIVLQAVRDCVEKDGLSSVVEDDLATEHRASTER
In words: FAM20C in vitro kinase assay with dephosphorylated alpha-Casein as substrate. As to conditions: Casein as model substrate; 5 minute assays. Format: biochemical. The protocol: For FAM20C:V5 purification, pcDNA-FAM20C:V5 was transfected to HEK293T cells, and FAM20C:V5 was purified from conditioned media using anti-V5 agarose beads (Sigma). Condition media were incubated with anti-V5 affinity gel (Sigma) overnight at 4° C. Agarose beads were collected by centrifugation, and washed 5 times with TBS. Proteins were eluted using V5 peptides in TBS (Sigma, final concentration: 100 μg/ml). For purification of OPN:FLAG, BSP:FLAG, DMP1:FLAG, DSPP:FLAG and MEPE:FLAG, condition media were incubated with anti-FLAG M2 affinity gel (Sigma) overnight at 4° C. Agarose beads were collected by centrifugation, and washed 5 times with TBS. Purified quantification was performed on gels stained by SYPRO Ruby Protein Gel Stain (Invitrogen), using BSA as a standard.
FAM20C kinase assays were performed in 10 μl reactions, with 500 μM ATP, including 3 μCi (0.05 μM) of [gamma-^32P]ATP (6000 Ci/mmol, PerkinElmer), 50 mM Tris (pH 7.0), 10 mM MnCl2, 0.1% BSA, purified FAM20C:V5 (5 ng, […]), and dephosphorylated alpha-Casein (0.1 μg, Sigma). […] Radioactivity within the gels was detected using a Molecular Dynamics Phosphor Imager. For quantitation of gamma-^32P incorporation, bands were cut out of the gels using the Phosphor Imager pictures as a reference, and then counted by liquid scintillation using a Beckman Coulter LC6500. […]

The subject of the next series is OPN-ASARM peptide. Nature of the series: Kinase assays of FAM20C mutant proteins. Format: biochemical, human. As to conditions: recombinant mouse FAM20C:V5 mutants; for the mutants OPN-ASARM peptide (1) as substrate, FIG. 8f. The protocol:
Site-specific mutagenesis was performed by PCR essentially as described^26, by using primers […] and […] (SEQ ID NO: 25) (FAM20C^GG), […] (SEQ ID NO: 26) and […] (FAM20C^D453G) (SEQ ID NO: 27), […] (SEQ ID NO: 28) and […] (FAM20C^G374R) (SEQ ID NO: 29), […] and […] (FAM20C^G374E) (SEQ ID NO: 30), […] (SEQ ID NO: 31) and […] (FAM20C^E383R) (SEQ ID NO: 32), […] (SEQ ID NO: 33) and […] (FAM20C^R544W) (SEQ ID NO: 34), […] (SEQ ID NO: 35) and […] (FAM20C^1241N)(SEQ ID NO: 36), […] (SEQ ID NO: 37) and […] (FAM20C^G261R) (SEQ ID NO: 38), […] (SEQ ID NO: 39) and […] (FAM20C^D446N) (SEQ ID NO:40). All mutations were confirmed by DNA sequencing.
FAM20C kinase assay with peptides substrates were performed in 10 μl reactions, with 500 μM ATP, including 3 μCi (0.05 μM) of [gamma-^32P]ATP (6000 Ci/mmol, PerkinElmer), 50 mM Tris (pH 7.0), 10 mM MnCl2, 0.1% BSA, purified FAM20C:V5 and peptides. Casein Kinase I (500 units, NEB) was used as a control kinase. mutant versions (5 ng, […]), and peptides (2.5 μg, 1 nmol as a standard condition. 250 ng, […] in FAM20C mutants). Reactions were stopped by adding 1.5 μl 0.1N—HCl, and one half of the reaction volume was pipetted on to P81 phospho-cellulose filter paper^27. The filter papers were washed with 0.5% phosphoric acid and subjected to liquid scintillation counting.

Substitutions are numbered along the chain they refer to. In names and notes the source's numbering stands.

B1: FAM20C: affinity purified V5-tagged mouse FAM20C, Golgi-localized protein kinase (protein)
chain: T1 sequence (Q5MJS3 88-579)
modifications: left off: small tags and cut ends
Consider B1, for which, in the series with FAM20C, the V. was determined as 0.7 μM ATP/min/mg FAM20C and the “turnover number (kcat)” value amounted to 52 per minute.

B2: 1241N: recombinant mouse FAM20C:V5 carrying Raine syndrome patient mutation 1241N (protein, UniProt Q5MJS3 88-579, looked up, variant I241N)
Extracellular …: T1 sequence (Q5MJS3 88-579) with I154N
modifications: V5 tag
notes: recombinant mouse FAM20C:V5 carrying Raine syndrome patient mutation 1241N
Regarding B2, in the series with OPN-ASARM peptide, the “kinase activity of FAM20C mutant isoform” value was “no detectable kinase activity”.

B3: D453G: FAM20C:V5 with a mutation in a conserved Asp residue (protein, UniProt Q5MJS3 88-579, looked up, variant D453G)
Extracellular …: T1 sequence (Q5MJS3 88-579) with D366G
modifications: V5 tag
notes: FAM20C:V5 with a mutation in a conserved Asp residue
B3: the “kinase activity of FAM20C mutant isoform” value in the series with OPN-ASARM peptide is recorded as “abolished catalytic activity”.

B4: G374R: recombinant mouse FAM20C:V5 carrying Raine syndrome patient mutation G374R (protein, UniProt Q5MJS3 88-579, looked up, variant G374R)
Extracellular …: T1 sequence (Q5MJS3 88-579) with G287R
modifications: V5 tag
Regarding B4, the “kinase activity of FAM20C mutant isoform” value in the series with OPN-ASARM peptide was “no detectable kinase activity”.

B5: G374E: recombinant mouse FAM20C:V5 carrying Raine syndrome patient mutation G374E (protein, UniProt Q5MJS3 88-579, looked up, variant G374E)
Extracellular …: T1 sequence (Q5MJS3 88-579) with G287E
modifications: V5 tag
For B5, in the series on OPN-ASARM peptide, the “kinase activity of FAM20C mutant isoform” value is “no detectable kinase activity”.

B6: G261R: recombinant mouse FAM20C:V5 carrying Raine syndrome patient mutation G261R (protein, UniProt Q5MJS3 88-579, looked up, variant G261R)
Extracellular …: T1 sequence (Q5MJS3 88-579) with G174R
modifications: V5 tag
As to B6, the “kinase activity of FAM20C mutant isoform” value in the series with OPN-ASARM peptide was “diminished kinase activity”.

B7: DN473-474GG: FAM20C:V5 with a mutation in a motif predicted to bind metal ion cofactors (protein, UniProt Q5MJS3 88-579, looked up, variant D473G N474G)
Extracellular …: T1 sequence (Q5MJS3 88-579) with D386G, N387G
modifications: V5 tag
Turning to B7, in the series on OPN-ASARM peptide, the “kinase activity of FAM20C mutant isoform” value is given as “abolished catalytic activity”.
